The data set deals with the molecule itself. In words: SEC; gel-filtration chromatography of the pure proteins; Sephacryl S-200, 10 mM Tris-HCl pH 8.0, 0.15 M NaCl, 0.8 ml/min; results not shown. In general terms: Size exclusion chromatography separates by hydrodynamic size, large species first.

One may read the stoichiometry N as a count of units in the complex or per binding partner.

B1: Caenorhabditis elegans manganese superoxide dismutase MnSOD-3 (enzyme)
chain: MKHTLPDLPFDYADLEPVISHEIMQLHHQKHHATYVNNLNQIEEKLHEAVSKGNLKEAIALQPALKFNGGGHINHSIFWTNLAKDGGEPSKELMDTIKRDFGSLDNLQKRLSDITIAVQGSGWGWLGYCKKDKILKIATCANQDPLEGMVPLFGIDVWEHAYYLQYKNVRPDYVHAIWKIANWKNISERFANARQ
notes: N-terminal methionine of the expression construct, retained in the purified protein by mass spectrometry; Superoxide dismutase [Mn]; Expressed without a histidine tag; Cloning is as in Hunter et al., 1997
For the protein B1, the “stoichiometry N” value worked out at 4.

B2: Caenorhabditis elegans manganese superoxide dismutase MnSOD-2 (enzyme)
chain: MKHSLPDLPYDYADLEPVISHEIMQLHHQKHHATYVNNLNQIEEKLHEAVSKGNVKEAIALQPALKFNGGGHINHSIFWTNLAKDGGEPSAELLTAIKSDFGSLDNLQKQLSASTVAVQGSGWGWLGYCPKGKILKVATCANQDPLEATTGLVPLFGIDVWEHAYYLQYKNVRPDYVNAIWKIANWKNVSERFAKAQQ
notes: as for B1
Regarding B2, the “stoichiometry N” value was 4.

The values are drawn from PMC2593702, “Purification, crystallization and X-ray structures of the two manganese superoxide dismutases from Caenorhabditis elegans” (Acta Crystallographica Section F, 2008).
